This note sets out measurements from the supplement of paper PMC11246515.

This series is described as follows: total protein half-life in vivo (active degradation + dilution); higher = more stable protein.
Where [1] appears, read: E. coli NCM3722 delta-clpP, growth: N-lim chemostat, doubling time 6 h.
Where [2] appears, read: E. coli NCM3722 delta-hslV, growth: N-lim chemostat, doubling time 6 h.
The mark [3] stands for this setting: E. coli NCM3722 delta-lon, growth: N-lim chemostat, doubling time 6 h.
Where [4] appears, read: E. coli NCM3722 delta-smpB, growth: N-lim chemostat, doubling time 6 h.
Setting [5] is: wild type E. coli NCM3722, growth: C-lim chemostat, doubling time 3 h.
The mark [6] stands for this setting: wild type E. coli NCM3722, growth: C-lim chemostat, doubling time 6 h.
[7] abbreviates: wild type E. coli NCM3722, growth: C-lim chemostat, doubling time 12 h.
[8] abbreviates: wild type E. coli NCM3722, growth: N-lim chemostat, doubling time 6 h.
Where [9] appears, read: wild type E. coli NCM3722, growth: N-lim chemostat, doubling time 12 h.
Setting [10] is: wild type E. coli NCM3722, growth: P-lim chemostat, doubling time 6 h.
The mark [11] stands for this setting: wild type E. coli NCM3722, growth: P-lim chemostat, doubling time 12 h.
Where [12] appears, read: E. coli NCM3722 delta-clpP delta-lon delta-hslV, growth: N-lim chemostat, doubling time 6 h.

± gives the standard deviation of the averaged measurements.

In the case of “MRYIRQLCCVSLLCLSGSAVAANVRLQVEGLSGQLEKNVRAQLSTIESDEVTPDRRFRARVDDAIREGLKALGYYQPTIEFDLRPPPKKGRQVLIAKVTPGVPVLIGGTDVVLRGGARTDKDYLKLLDTRPAIGTVLNQGDYENFKKSLTSIALRKGYFDSEFTKAQLGIALGLHKAFWDIDYNSGERYRFGHVTFEGSQIRDEYLQNLVPFKEGDEYESKDLAELNRRLSATGWFNSVVVAPQFDKARETKVLPLTGVVSPRTENTIETGVGYSTDVGPRVKATWKKPWMNSYGHSLTTSTSISAPEQTLDFSYKMPLLKNPLEQYYLVQGGFKRTDLNDTESDSTTLVASRYWDLSSGWQRAINLRWSLDHFTQGEITNTTMLFYPGVMISRTRSRGGLMPTWGDSQRYSIDYSNTAWGSDVDFSVFQAQNVWIRTLYDRHRFVTRGTLGWIETGDFDKVPPDLRFFAGGDRSIRGYKYKSIAPKYANGDLKGASKLITGSLEYQYNVTGKWWGAVFVDSGEAVSDIRRSDFKTGTGVGVRWESPVGPIKLDFAVPVADKDEHGLQFYIGLGPEL [P0ADE4]”, the “total protein half-life in vivo” value is 6.81 ± 0.13 h under setting [1]; 6.538 ± 0.011 h under setting [2]; 6.38 ± 0.61 h under setting [3]; 5.85 ± 0.15 h under setting [4]; 3.013 ± 0.0066 h under setting [5]; 6.21 ± 0.37 h under setting [6]. The “total protein half-life in vivo” value by setting is: under setting [7], 12.8 ± 0.55 h; under setting [8], 6.59 ± 1 h; under setting [9], 13.5 ± 0.56 h; under setting [10], 6.31 ± 0.16 h; under setting [11], 13.8 ± 0.96 h.

For the sequence “MGSEISKKDITRLGFRSSLLQASFNYERMQAGGFTWAMLPILKKIYKDDKPGLSAAMKDNLEFINTHPNLVGFLMGLLISMEEKGENRDTIKGLKVALFGPIAGIGDAIFWFTLLPIMAGICSSFASQGNLLGPILFFAVYLLIFFLRVGWTHVGYSVGVKAIDKVRENSQMIARSATILGITVIGGLIASYVHINVVTSFAIDNTHSVALQQDFFDKVFPNILPMAYTLLMYYFLRVKKAHPVLLIGVTFVLSIVCSAFGIL”, under setting [11], the “total protein half-life in vivo” value came to 4.67 h.

Regarding “MDLTQLEMFNAVAEAGSITQAAAKVHRVPSNLTTRLRQLETELGVDLFIRENQRLRLSPAGHNFLRYSQQILALVDEARSVVAGDEPQGLFSLGSLESTAAVRIPATLAEFNRRYPKIQFSLSTGPSGTMLDGVLEGKLNAAFIDGPINHTAIDGIPVYREELMIVTPQGYAPVTRASQVNGSNIYAFRANCSYRRHFESWFHADGAAPGTIHEMESYHGMLACVIAGAGIALIPRSMLESMPGHHQVEAWPLAEQWRWLTTWLVWRRGAKTRPLEAFIQLLDVPDSARQGYQ”, the “total protein half-life in vivo” value by setting is: under setting [12], greater than 8 h; under setting [1], 5.2 h; under setting [2], 4.72 h; under setting [3], 4.66 h; under setting [4], 4.76 h; under setting [5], 2.76 h. Further, the “total protein half-life in vivo” value under setting [7] is 8.27 h, the “total protein half-life in vivo” value under setting [9] was 12.1 ± 2.1 h, the “total protein half-life in vivo” value under setting [10] stood at 6.44 ± 1 h and the “total protein half-life in vivo” value under setting [11] came out at 10.7 ± 2.1 h.

Take “MIKQTIVALLLSVGASSVFAAGTVKVFSNGSSEAKTLTGAEHLIDLVGQPRLANSWWPGAVISEELATAAALRQQQALLTRLAEQGADSSADDAAAINALRQQIQALKVTGRQKINLDPDIVRVAERGNPPLQGNYTLWVGPPPSTVTLFGLISRPGKQPFTPGRDVASYLSDQSLLSGADRSYAWVVYPDGRTQKAPVAYWNKRHVEPMPGSIIYVGLADSVWSETPDALNADILQTLTQRIPQ”: the “total protein half-life in vivo” value under setting [12] was found to be 7.07 h, the “total protein half-life in vivo” value under setting [1] is 6.22 h, the “total protein half-life in vivo” value under setting [3] came out at 7.193 ± 0.064 h and the “total protein half-life in vivo” value under setting [4] turned out to be 5.1 ± 0.077 h.

Turning to “MAEFPASLLILNGKSTDNLPLREAIMLLREEGMTIHVRVTWEKGDAARYVEEARKFGVATVIAGGGDGTINEVSTALIQCEGDDIPALGILPLGTANDFATSVGIPEALDKALKLAIAGDAIAIDMAQVNKQTCFINMATGGFGTRITTETPEKLKAALGSVSYIIHGLMRMDTLQPDRCEIRGENFHWQGDALVIGIGNGRQAGGGQQLCPNALINDGLLQLRIFTGDEILPALVSTLKSDEDNPNIIEGASSWFDIQAPHDITFNLDGEPLSGQNFHIEILPAALRCRLPPDCPLLR”, the “total protein half-life in vivo” value under setting [12] stood at 5 ± 0.044 h; the “total protein half-life in vivo” value under setting [1] was 4.23 ± 0.21 h; the “total protein half-life in vivo” value under setting [2] worked out at 3.94 ± 0.33 h; the “total protein half-life in vivo” value under setting [3] came out at 4.69 ± 0.069 h; the “total protein half-life in vivo” value under setting [4] was determined as 4.31 ± 0.74 h; the “total protein half-life in vivo” value under setting [5] came to 3.19 ± 0.41 h. In addition, the “total protein half-life in vivo” value runs as follows: under setting [6], 5.73 ± 0.4 h; under setting [7], 9.08 ± 0.56 h; under setting [8], 4.51 ± 0.3 h; under setting [9], 7.91 ± 0.14 h; under setting [10], 5.17 ± 0.48 h; under setting [11], 9.75 ± 0.16 h.

Take “MSSLINNAMSGLNAAQAALNTASNNISSYNVAGYTRQTTIMAQANSTLGAGGWVGNGVYVSGVQREYDAFITNQLRAAQTQSSGLTARYEQMSKIDNMLSTSTSSLATQMQDFFTSLQTLVSNAEDPAARQALIGKSEGLVNQFKTTDQYLRDQDKQVNIAIGASVDQINNYAKQIASLNDQISRLTGVGAGASPNNLLDQRDQLVSELNQIVGVEVSVQDGGTYNITMANGYSLVQGSTARQLAAVPSSADPSRTTVAYVDGTAGNIEIPEKLLNTGSLGGILTFRSQDLDQTRNTLGQLALAFAEAFNTQHKAGFDANGDAGEDFFAIGKPAVLQNTKNKGDVAIGATVTDASAVLATDYKISFDNNQWQVTRLASNTTFTVTPDANGKVAFDGLELTFTGTPAVNDSFTLKPVSDAIVNMDVLITDEAKIAMASEEDAGDSDNRNGQALLDLQSNSKTVGGAKSFNDAYASLVSDIGNKTATLKTSSATQGNVVTQLSNQQQSISGVNLDEEYGNLQRFQQYYLANAQVLQTANAIFDALINIR”: the “total protein half-life in vivo” value is, setting by setting: under setting [12], 3.99 ± 0.38 h; under setting [1], greater than 8 h; under setting [2], greater than 8 h; under setting [4], greater than 8 h; under setting [5], 0.385 ± 0.15 h; under setting [6], 0.323 ± 0.065 h. In addition, the “total protein half-life in vivo” value by setting is: under setting [7], 0.835 ± 0.28 h; under setting [8], 5.22 ± 0.16 h.

For the sequence “MRVLVTGGSGYIGSHTCVQLLQNGHDVIILDNLCNSKRSVLPVIERLGGKHPTFVEGDIRNEALMTEILHDHAIDTVIHFAGLKAVGESVQKPLEYYDNNVNGTLRLISAMRAANVKNFIFSSSATVYGDQPKIPYVESFPTGTPQSPYGKSKLMVEQILTDLQKAQPDWSIALLRYFNPVGAHPSGDMGEDPQGIPNNLMPYIAQVAVGRRDSLAIFGNDYPTEDGTGVRDYIHVMDLADGHVVAMEKLANKPGVHIYNLGAGVGNSVLDVVNAFSKACGKPVNYHFAPRREGDLPAYWADASKADRELNWRVTRTLDEMAQDTWHWQSRHPQGYPD”, the “total protein half-life in vivo” value under setting [12] turned out to be 6.39 ± 1.9 h; the “total protein half-life in vivo” value under setting [1] was determined as 4.762 ± 0.027 h; the “total protein half-life in vivo” value under setting [2] is 4.54 ± 0.37 h; the “total protein half-life in vivo” value under setting [3] stood at 5 ± 0.24 h; the “total protein half-life in vivo” value under setting [4] came to 5.61 ± 1.2 h; the “total protein half-life in vivo” value under setting [5] is 3.11 ± 0.27 h. The “total protein half-life in vivo” value reads like this: under setting [6], 5.62 ± 0.26 h; under setting [7], 11.6 ± 0.67 h; under setting [8], 4.53 ± 0.95 h; under setting [9], 13.7 ± 1.8 h; under setting [10], 5.91 ± 0.51 h; under setting [11], 11.7 ± 0.53 h.

As for “MKTLATIGDNCVDIYPQLNKAFSGGNAVNVAVYCTRYGIQPGCITWVGDDDYGTKLKQDLARMGVDISHVHTKHGVTAQTQVELHDNDRVFGDYTEGVMADFALSEEDYAWLAQYDIVHAAIWGHAEDAFPQLHAAGKLTAFDFSDKWDSPLWQTLVPHLDFAFASAPQEDETLRLKMKAIVARGAGTVIVTLGENGSIAWDGAQFWRQAPEPVTVIDTMGAGDSFIAGFLCGWSAGMTLPQAIAQGTACAAKTIQYHGAW”, the “total protein half-life in vivo” value by setting is: under setting [12], 5.37 h; under setting [1], 3.97 h; under setting [2], 4.2 ± 0.26 h; under setting [3], greater than 8 h; under setting [4], 3.48 h; under setting [5], 1.68 h. Also, the “total protein half-life in vivo” value was 3.27 h under setting [6] and 7.21 ± 0.47 h under setting [7].
